Test [1] addresses chemokine receptor CCR8 (UniProt P51685). Briefly: cell-based or functional assay.
The target of test [2] is chemokine receptor CCR8 (UniProt P51685 1-355, limits assumed). Briefly: cell-based or functional assay.

A value given as a limit tells only on which side of the number the result lay.

Sequence of chemokine receptor CCR8 (UniProt P51685) (P51685 whole entry): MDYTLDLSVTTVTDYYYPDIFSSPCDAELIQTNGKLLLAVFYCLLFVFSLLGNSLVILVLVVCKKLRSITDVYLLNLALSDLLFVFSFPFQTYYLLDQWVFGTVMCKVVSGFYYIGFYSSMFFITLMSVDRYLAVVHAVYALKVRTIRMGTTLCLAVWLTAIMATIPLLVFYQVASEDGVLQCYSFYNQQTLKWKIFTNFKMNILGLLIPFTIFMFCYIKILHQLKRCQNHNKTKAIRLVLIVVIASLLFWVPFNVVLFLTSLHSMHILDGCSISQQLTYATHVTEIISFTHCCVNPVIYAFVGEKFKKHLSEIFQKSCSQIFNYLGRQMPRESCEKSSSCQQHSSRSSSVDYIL
Sequence of chemokine receptor CCR8 (UniProt P51685 1-355, limits assumed) (P51685 whole entry): as above

MC148 fusion protein MC148p-TAT-6xHis gave an inhibition of 1-309 induced chemotaxis (IC50) with chemokine receptor CCR8 [1] of 200 nM.

Molecule “recombinant MC148 protein (from UniProt Q98314 25-104) (ligand)” gave an inhibition of 1-309 induced chemotaxis of cells expressing CCR8 (IC50) in the test with chemokine receptor CCR8 [1] of 2 nM.

In the test with chemokine receptor CCR8 [1], “synthetic MC148 protein (from UniProt Q98314 1-104) (ligand)” displayed an inhibition of 1-309 induced chemotaxis (IC50) above 15000 nM. Take VSLARRKCCL [peptide fragment VL-10]: in the test with chemokine receptor CCR8 [2], the “inhibition of 1-309 induced chemotaxis (IC50)” value is above 15 µM.

Values taken from patent US20200277335A1 (LARRK BIO, published 2020).
